Laboratory results reported in the nanobody polyreactivity screen of Harvey et al. (2022).

Assay: yeast display, Sf9 membrane polyspecificity reagent, FACS + sequencing; frameworks hold sequencing errors
Outline: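 Polyreactivity labels are assigned by the sorting gate from which each nanobody was recovered. The gates were low and high (top ~1%), set on anti-HA fluorescence for expression and streptavidin fluorescence for reagent binding. Before sorting, galactose-induced (36–48 hours) yeast display cells were stained for 1 hour at 4 °C with 10% biotinylated, detergent-solubilized Sf9 membrane reagent.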

For “QVQLVESGGGLVQAGGSLRLSCAASGSIFGVNDMGWYRQAPGKERELVAGISSGGSTYYADSVKGRFTISRDNAKNTVYLQMNSLKPEDTAVYYCAKPYYDGRTHFDSWGQGTQVTVSS”, the “polyreactivity (PSR sort gate)” value was “low polyreactivity”.

In the case of “QVQLVESGGGLVQAGGSLRLSCAASGSIFGVYAMGWYRQAPGKERELVARISGSSGSTRYSDSVKGRFTISRDNAKNTVYLQMNSLKPEDTAVYYCAARAIFRQGDRIYDSWGQGTQVTVSS”, the “polyreactivity (PSR sort gate)” value is reported as “high polyreactivity”.

With “QVQLVESGGGLVQAGGSLRLSCAASGSIFGVYAMGWYRQAPGKERELVASITSGSSTNYADSVKGRFTISRDNAKNTVYLQMNSLKPEDTAVYYCAAGRTSRSRRYYRFFYAGDYWGQGTQVTVSS” the “polyreactivity (PSR sort gate)” value was “low polyreactivity”.

In the case of “QVQLVESGGGLVQAGGSLRLSCAASGSIFGVYAMGWYRQAPGQERELVAVITWSDGGTYYADSVKGRFTISRDNAKNTVYLQMNSLKPEDTAVYYCAKERYDYSYDYWGQGTQVTVSS”, the “polyreactivity (PSR sort gate)” value is reported as “high polyreactivity”.

With “QVQLVESGGGLVQAGGSLRLSCAASGSIFGWYAMGWYRQAPGKERELVAAISSSDGSTYYADSVKGRFTISRDNAKNTVYLQMNSLTPEDTAVYYCAKVYIRQNLAPYGYWGQGTQVTVSS” the “polyreactivity (PSR sort gate)” value was “low polyreactivity”.

For “QVQLVESGGGLVQAGGSLRLSCAASGSIFGWYAMGWYRQAPGKERELVATISSGGSTSYADSVKGRFTISRDNAKNTVYLQMKSLKPEDTAVYYCAADIYPDWIYLLYGYWGQGTQVTVSS”, the “polyreactivity (PSR sort gate)” value was “low polyreactivity”.

In the case of “QVQLVESGGGLVQAGGSLRLSCAASGSIFGWYVMGWYRQAPGKERELVAAISSVGSTYYADSVKGRFTISRDNAKNTVYLQMNSLKPEDTAVYYCAADRVWGTPQAYVPSQFDYWGQGTQVTVSS”, the “polyreactivity (PSR sort gate)” value is reported as “low polyreactivity”.

For “QVQLVESGGGLVQAGGSLRLSCAASGSIFGYEMGWYRQAPGRERELVAAISFSGVSTYYADSVKGRFTISRDNAKNTVYIQMNSLKQEDTAVYNCNAYSDGDEDYWVQGTQVTVSS”, the “polyreactivity (PSR sort gate)” value was “low polyreactivity”.

For “QVQLVESGGGLVQAGGSLRLSCAASGSIFGYNAMGWYRQAPGKERELVAAISLTTGSTYYADSVKGRFTISRDNAKNTVYLQMNCLNPEDTAVYYCAAVDADYYYWGQGTQVTVSS”, the “polyreactivity (PSR sort gate)” value was “high polyreactivity”.

With “QVQLVESGGGLVQAGGSLRLSCAASGSIFGYNVMGGDRQAPGKEREFVARINYIGSSTYYADSVKGRFTISRDNAKNTVYLQMNSLKPEDTADYYCNADNARGRSGVRRYYWGQGTQVTVSS” the “polyreactivity (PSR sort gate)” value was “high polyreactivity”.

For “QVQLVESGGGLVQAGGSLRLSCAASGSIFGYVMGWSRQAPGKERELVAAISSGGSTDYADSVKGRFTISRDNAKNTVYLQMNSLKPEDTAVYYCAADTDNGYTYYYWGQGTQVTVSS”, the “polyreactivity (PSR sort gate)” value was “low polyreactivity”.

With “QVQLVESGGGLVQAGGSLRLSCAASGSIFGYYAMGCYRQAPGKERELVAAITNGGSTSYADSVKGRFTISRDNAKNTVDLQMNSLKPEETSVYYCNARFKRLFGRADDYWGQGTQVTVSS” the “polyreactivity (PSR sort gate)” value was “low polyreactivity”.

With “QVQLVESGGGLVQAGGSLRLSCAASGSIFGYYAMGGYRQAPGKERELVAAISVNGGRTYYADSVKGRFTISRDNAKNTVYLQMNSLKPEDTAVYYCAAELVDYITFRGDYYYWGQGTQVTVSS” the “polyreactivity (PSR sort gate)” value was “high polyreactivity”.

In the case of “QVQLVESGGGLVQAGGSLRLSCAASGSIFGYYAMGWYRPAPGKERQLVAAIDSRGGSTYYADSVKGRFTISRDYEKNTVYLQMNSLKPEDTAVYYWAARLRYPRRGQGDNYWGQGTQVTVSS”, the “polyreactivity (PSR sort gate)” value is reported as “low polyreactivity”.

With “QVQLVESGGGLVQAGGSLRLSCAASGSIFGYYAMGWYRQAPGKERELVAAIDSGGVSTYYADSVKGRFTISRDIAKNTVYLQMNSLKAEDTAVYYCAKRGPVRKTAYDYWGQGTQVTVSS” the “polyreactivity (PSR sort gate)” value was “low polyreactivity”.

For “QVQLVESGGGLVQAGGSLRLSCAASGSIFGYYAMGWYRQAPGKERELVAAISRRGGRTYYADSVKGRFTISRDNAKNTVYLQMNSLKPEDTAVYYCAAAVSVSASPYTGFDYWGQGTQVTVSS”, the “polyreactivity (PSR sort gate)” value was “high polyreactivity”.

With “QVQLVESGGGLVQAGGSLRLSCAASGSIFGYYAMGWYRQAPGKERELVAAISYRGGSTYYADSVKGRFTISRDNAKNTVYLQMNSLKPEDTAVYYCNAPFLGAHHYGYEYWGQGTQVTVSS” the “polyreactivity (PSR sort gate)” value was “high polyreactivity”.

With “QVQLVESGGGLVQAGGSLRLSCAASGSIFGYYAMGWYRQAPGKERELVAAITRGARTYYADSVKGRFTISRDNAKNTVYLQMNSLKPEDTAFYYCNRVPYYEGGNGSWGQGTQVTVSS” the “polyreactivity (PSR sort gate)” value was “high polyreactivity”.

For “QVQLVESGGGLVQAGGSLRLSCAASGSIFGYYAMGWYRQAPGKERELVASISGSGGTTYYADSVKGRFTISRDNAKNTVYLQMNSLKPEDTAVYYCAARRSMYGYPFVTSRRGYWGHGTQVTVSS”, the “polyreactivity (PSR sort gate)” value was “high polyreactivity”.

In the case of “QVQLVESGGGLVQAGGSLRLSCAASGSIFGYYAMGWYRQAPGKERELVATITWGGGSTYADSVKGRFTISRDNAKNTVYLQMNSLKPEDTAVYYCNAGYRYTSAQVTWEYDYWGQGTQVTVSS”, the “polyreactivity (PSR sort gate)” value is reported as “low polyreactivity”.

In the case of “QVQLVESGGGLVQAGGSLRLSCAASGSIFGYYAMGWYRQAPGTERELVAAITTGGSTSYADSVKGRFTISRDNAKNTVYLQMNSLKPEDTAVYYCAARPHHGWLEYGSAGLGYWGQGTQVTVSS”, the “polyreactivity (PSR sort gate)” value is reported as “low polyreactivity”.

In the case of “QVQLVESGGGLVQAGGSLRLSCAASGSIFGYYAMGWYRQAPGTERELVATITWGGGSTYADSVKGRFTISRDNAKNTVYLQMNSLKPEDTAVYYCNAGYRYTSAQVTWEYDSWGQGTQVTVSS”, the “polyreactivity (PSR sort gate)” value is reported as “low polyreactivity”.

In the case of “QVQLVESGGGLVQAGGSLRLSCAASGSIFGYYAMGWYTLAPGKERELVASISFSGGSTYYADSVKGRFTISRDNAKNTVYLQMNSLKPEDTAVYYCAKRPRFVYWKHGYWGQGTQVTVSS”, the “polyreactivity (PSR sort gate)” value is reported as “high polyreactivity”.

With “QVQLVESGGGLVQAGGSLRLSCAASGSIFGYYAMVWKRQAPGKESELVAAMNYSGVSTYYADSVKGRFTISRDNAKNTVYLQMNSLKPEDSAVYYCARDIRRKGFRYDYWGQGTQVTVSS” the “polyreactivity (PSR sort gate)” value was “high polyreactivity”.

In the case of “QVQLVESGGGLVQAGGSLRLSCAASGSIFGYYARGWYRQASGKESELVADITSSGSTYYADSVKGRFTISRDNAKNTVYLQMNSLKPEDTAVYYCAADQYFLGSIDGFEYWGQRTQVTVSS”, the “polyreactivity (PSR sort gate)” value is reported as “low polyreactivity”.

In the case of “QVQLVESGGGLVQAGGSLRLSCAASGSIFGYYDMGWYRQAPGKEREFVAASTFRGGRTYYADSVKGRFTISRDNEKNTVYIQMYSLKPEDTAVDFCAAGYHHRWGNYWGQGTQVTVSS”, the “polyreactivity (PSR sort gate)” value is reported as “high polyreactivity”.

For “QVQLVESGGGLVQAGGSLRLSCAASGSIFGYYSMGWYRQAPGKERELVATITWGGGSTYADSVKGRFTISRDNAKNTVYLQMNSLKPEDTAVYYCNAGYRYTSAQVTWEYDYWGQGTQVTVSS”, the “polyreactivity (PSR sort gate)” value was “low polyreactivity”.

For “QVQLVESGGGLVQAGGSLRLSCAASGSIFGYYSMGWYRQATGKERELVATITWGGGSTYADSVKGRFTISRDNAKNTVYLQMNSLKPEDTAVYYCNAGYRYTSAQVTWEYDYWGQGTQVTVSS”, the “polyreactivity (PSR sort gate)” value was “low polyreactivity”.

In the case of “QVQLVESGGGLVQAGGSLRLSCAASGSIFHPYAMGWYRQAPGKERELVAAISSSTGRTYYADSVKGRFTISRDNAKNTVYLQMNSLKPEDTAVYYCAARKKYSEFDYWGQGTQVTVSS”, the “polyreactivity (PSR sort gate)” value is reported as “high polyreactivity”.

With “QVQLVESGGGLVQAGGSLRLSCAASGSIFHPYTMGWSRQAPGKERELVAAISWSGGRTYYADSVKGRFTISRDNAKNTVYLQMNSLKPEDTAVYYCAADVTLWYDSWGQGTQVTVSS” the “polyreactivity (PSR sort gate)” value was “low polyreactivity”.

With “QVQLVESGGGLVQAGGSLRLSCAASGSIFHSYAMGWYRQAPGKEREFVASITQRVGRTNYADSVKGRFTISRDNAKNTVYLQMISLKPEDTAVYYCAASSWRLYYRRDSWGQGTQVTVSS” the “polyreactivity (PSR sort gate)” value was “high polyreactivity”.

In the case of “QVQLVESGGGLVQAGGSLRLSCAASGSIFHSYAQGWYRQAPGKERELVASITASGDSTYYADSVKGRFTISRDNAKNTVYLQMNSLKPEDTAVYYCNTQAVYGGGEGGYDYWGQGTQVTVSS”, the “polyreactivity (PSR sort gate)” value is reported as “low polyreactivity”.

In the case of “QVQLVESGGGLVQAGGSLRLSCAASGSIFHYYAMGWYRQAPGKERELVAAISWSGGRTNYADSVKGRFTISRDNAKNTVYLQMNSLKPEDTAVYYCAAAERSYSGGGKIGKYYWGQGTQVTVSS”, the “polyreactivity (PSR sort gate)” value is reported as “high polyreactivity”.

For “QVQLVESGGGLVQAGGSLRLSCAASGSIFHYYAMGWYRQAPGKVRELVAAISSVGSTYYADSVKGRFTISRDYAKNTVYLQMNSLKPEDTAVYYCAAEAYAKRYVDRYSWYYYWGQGTQVTVSS”, the “polyreactivity (PSR sort gate)” value was “high polyreactivity”.

For “QVQLVESGGGLVQAGGSLRLSCAASGSIFIANAMGWYRQAPGKERELVAAISSSDSSTYYADSVKGRFTISRDNAKNTVYLQMNSLKPEDTAVYYCAATYWYWYREGYYWGQGTQVTVSS”, the “polyreactivity (PSR sort gate)” value was “high polyreactivity”.

For “QVQLVESGGGLVQAGGSLRLSCAASGSIFIAYTMGWYRQAPGKERELVAAISQSGGGTHYADSVKGRFTISRDNAKNTVYLQMNSLKPEDTAVYYCAADRPATSDYTGYDYWGQGTQVTVSS”, the “polyreactivity (PSR sort gate)” value was “low polyreactivity”.

For “QVQLVESGGGLVQAGGSLRLSCAASGSIFIDNAMGWDRQAPGKEREFVAAISKSGTSTYYADSVKGRFTISRDNAKNTVYLQMNSLKPEDTAVYYCAVRRPRPYSNYYYWGQGTQVTVSS”, the “polyreactivity (PSR sort gate)” value was “high polyreactivity”.

In the case of “QVQLVESGGGLVQAGGSLRLSCAASGSIFIDNAMGWYRQAPGKERELVAAITVRGASTNYADSVKGRFTISRDIAKNTVYLQMNSLKPEDTAVYYCNAVGLRSPWHQDFLIRYDYWGQGTQVTVSS”, the “polyreactivity (PSR sort gate)” value is reported as “low polyreactivity”.

For “QVQLVESGGGLVQAGGSLRLSCAASGSIFIGSVMGWYRQAPGKERELVADITWSGGSTYYADSVKGRFTISRANAKNTVYLQMNSLKPEDTAVYYCAARTFVIGDYDYWYALDSWGQGTQVTVSS”, the “polyreactivity (PSR sort gate)” value was “low polyreactivity”.

In the case of “QVQLVESGGGLVQAGGSLRLSCAASGSIFIGYAMGWYRQAPGKERELVASIRNGGSTNYADSVKGRFTISRDNAKNTVYLQMNSLKPEDTAVYYCAGRYPVFLVSFGFDYWGQGTQVTVSS”, the “polyreactivity (PSR sort gate)” value is reported as “low polyreactivity”.

In the case of “QVQLVESGGGLVQAGGSLRLSCAASGSIFIIYAMGRYRQAPGKERELVAAIRGRGGSTYYADSVKGRFTISRDKAKNTVYLEMNSLNPEDSAVYYCAASVDRGYNYWGEGTQVTVSS”, the “polyreactivity (PSR sort gate)” value is reported as “high polyreactivity”.

For “QVQLVESGGGLVQAGGSLRLSCAASGSIFILYAMGWYRQAPGKERELVAAISSTGTTYYADSVKGRFTISRDNAKNTVYLQMNSLKPEDSAVYYCAADIYPDWIYLLYGYWGQGTQVTVSS”, the “polyreactivity (PSR sort gate)” value was “low polyreactivity”.

In the case of “QVQLVESGGGLVQAGGSLRLSCAASGSIFILYMGWYRQAPGKERELVATISSGGSTNYADSVKGRFTISRDNAKNTVYLQMNSLKPEDTAVYYCNARGSERVDTYSLYDYWGQGTQVTVSS”, the “polyreactivity (PSR sort gate)” value is reported as “low polyreactivity”.
